Test results reported in IntAct's records for PubMed 29892012.

B1: Coiled-coil alpha-helical rod protein 1 (Homo sapiens), Q8TD31 (parent)
chain: MFPPSGSTGLIPPSHFQARPLSTLPRMAPTWLSDIPLVQPPGHQDVSERRLDTQRPQVTMWERDVSSDRQEPGRRGRSWGLEGSQALSQQAEVIVRQLQELRRLEEEVRLLRETSLQQKMRLEAQAMELEALARAEKAGRAEAEGLRAALAGAEVVRKNLEEGSQRELEEVQRLHQEQLSSLTQAHEEALSSLTSKAEGLEKSLSSLETRRAGEAKELAEAQREAELLRKQLSKTQEDLEAQVTLVENLRKYVGEQVPSEVHSQTWELERQKLLETMQHLQEDRDSLHATAELLQVRVQSLTHILALQEEELTRKVQPSDSLEPEFTRKCQSLLNRWREKVFALMVQLKAQELEHSDSVKQLKGQVASLQEKVTSQSQEQAILQRSLQDKAAEVEVERMGAKGLQLELSRAQEARRRWQQQTASAEEQLRLVVNAVSSSQIWLETTMAKVEGAAAQLPSLNNRLSYAVRKVHTIRGLIARKLALAQLRQESCPLPPPVTDVSLELQQLREERNRLDAELQLSARLIQQEVGRAREQGEAERQQLSKVAQQLEQELQQTQESLASLGLQLEVARQGQQESTEEAASLRQELTQQQELYGQALQEKVAEVETRLREQLSDTERRLNEARREHAKAVVSLRQIQRRAAQEKERSQELRRLQEEARKEEGQRLARRLQELERDKNLMLATLQQEGLLSRYKQQRLLTVLPSLLDKKKSVVSSPRPPECSASAPVAAAVPTRESIKGSLSVLLDDLQDLSEAISKEEAVCQGDNLDRCSSSNPQMSS
partner: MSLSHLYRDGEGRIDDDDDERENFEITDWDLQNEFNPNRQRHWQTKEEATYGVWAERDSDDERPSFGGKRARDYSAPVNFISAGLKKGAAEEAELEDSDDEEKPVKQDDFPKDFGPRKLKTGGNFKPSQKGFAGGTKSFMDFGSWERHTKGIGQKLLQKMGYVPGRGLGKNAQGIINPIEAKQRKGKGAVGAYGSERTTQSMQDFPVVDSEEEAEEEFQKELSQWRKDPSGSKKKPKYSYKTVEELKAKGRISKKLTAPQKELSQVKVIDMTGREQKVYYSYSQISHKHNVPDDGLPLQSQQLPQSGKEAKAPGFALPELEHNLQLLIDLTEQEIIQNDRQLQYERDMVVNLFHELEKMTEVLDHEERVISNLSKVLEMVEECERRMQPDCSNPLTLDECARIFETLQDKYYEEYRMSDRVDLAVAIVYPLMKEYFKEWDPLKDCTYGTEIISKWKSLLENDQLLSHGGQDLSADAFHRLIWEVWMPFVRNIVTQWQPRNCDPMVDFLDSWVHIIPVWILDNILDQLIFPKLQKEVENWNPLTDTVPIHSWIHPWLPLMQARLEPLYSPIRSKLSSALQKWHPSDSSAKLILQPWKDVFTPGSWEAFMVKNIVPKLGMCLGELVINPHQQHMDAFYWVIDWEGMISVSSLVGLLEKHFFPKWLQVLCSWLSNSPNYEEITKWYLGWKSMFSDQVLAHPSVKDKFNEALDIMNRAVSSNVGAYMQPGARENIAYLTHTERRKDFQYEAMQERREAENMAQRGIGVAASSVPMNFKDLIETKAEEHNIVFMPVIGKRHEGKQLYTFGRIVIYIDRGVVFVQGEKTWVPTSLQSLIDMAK
B2: Ribosome assembly protein METTL17, mitochondrial (Homo sapiens), Q9H7H0 (parent)
chain: MAAALKCLLTLGRWCPGLGVAPQARALAALVPGVTQVDNKSGFLQKRPHRQHPGILKLPHVRLPQALANGAQLLLLGSAGPTMENQVQTLTSYLWSRHLPVEPEELQRRARHLEKKFLENPDLSQTEEKLRGAVLHALRKTTYHWQELSYTEGLSLVYMAARLDGGFAAVSRAFHEIRARNPAFQPQTLMDFGSGTGSVTWAAHSIWGQSLREYMCVDRSAAMLVLAEKLLKGGSESGEPYIPGVFFRQFLPVSPKVQFDVVVSAFSLSELPSKADRTEVVQTLWRKTGHFLVLVENGTKAGHSLLMDARDLVLKGKEKSPLDPRPGFVFAPCPHELPCPQLTNLACSFSQAYHPIPFSWNKKPKEEKFSMVILARGSPEEAHRWPRITQPVLKRPRHVHCHLCCPDGHMQHAVLTARRHGRDLYRCARVSSWGDLLPVLTPSAFPPSTAQDPSES
partner: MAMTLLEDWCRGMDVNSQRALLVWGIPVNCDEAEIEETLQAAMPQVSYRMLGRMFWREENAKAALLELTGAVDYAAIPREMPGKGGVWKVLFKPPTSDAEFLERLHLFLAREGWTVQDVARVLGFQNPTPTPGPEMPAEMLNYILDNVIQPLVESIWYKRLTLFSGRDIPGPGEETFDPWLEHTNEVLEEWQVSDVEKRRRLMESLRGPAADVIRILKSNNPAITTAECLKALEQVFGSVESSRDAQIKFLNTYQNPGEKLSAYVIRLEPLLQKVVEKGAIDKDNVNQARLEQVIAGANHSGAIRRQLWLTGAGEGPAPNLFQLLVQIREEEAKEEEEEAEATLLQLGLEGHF
B3: Cell division cycle-associated 7-like protein (Homo sapiens), Q96GN5 (parent)
chain: MELATRYQIPKEVADIFNAPSDDEEFVGFRDDVPMETLSSEESCDSFDSLESGKQQDVRFHSKYFTEELRRIFIEDTDSETEDFAGFTQSDLNGKTNPEVMVVESDLSDDGKASLVSEEEEDEEEDKATPRRSRSRRSSIGLRVAFQFPTKKLANKPDKNSSSEQLFSSARLQNEKKTILERKKDCRQVIQREDSTSESEDDSRDESQESSDALLKRTMNIKENKAMLAQLLAELNSMPDFFPVRTPTSASRKKTVRRAFSEGQITRRMNPTRSARPPEKFALENFTVSAAKFAEEFYSFRRRKTIGGKCREYRRRHRISSFRPVEDITEEDLENVAITVRDKIYDKVLGNTCHQCRQKTIDTKTVCRNQGCCGVRGQFCGPCLRNRYGEDVRSALLDPDWVCPPCRGICNCSYCRKRDGRCATGILIHLAKFYGYDNVKEYLESLQKELVEDN
partner: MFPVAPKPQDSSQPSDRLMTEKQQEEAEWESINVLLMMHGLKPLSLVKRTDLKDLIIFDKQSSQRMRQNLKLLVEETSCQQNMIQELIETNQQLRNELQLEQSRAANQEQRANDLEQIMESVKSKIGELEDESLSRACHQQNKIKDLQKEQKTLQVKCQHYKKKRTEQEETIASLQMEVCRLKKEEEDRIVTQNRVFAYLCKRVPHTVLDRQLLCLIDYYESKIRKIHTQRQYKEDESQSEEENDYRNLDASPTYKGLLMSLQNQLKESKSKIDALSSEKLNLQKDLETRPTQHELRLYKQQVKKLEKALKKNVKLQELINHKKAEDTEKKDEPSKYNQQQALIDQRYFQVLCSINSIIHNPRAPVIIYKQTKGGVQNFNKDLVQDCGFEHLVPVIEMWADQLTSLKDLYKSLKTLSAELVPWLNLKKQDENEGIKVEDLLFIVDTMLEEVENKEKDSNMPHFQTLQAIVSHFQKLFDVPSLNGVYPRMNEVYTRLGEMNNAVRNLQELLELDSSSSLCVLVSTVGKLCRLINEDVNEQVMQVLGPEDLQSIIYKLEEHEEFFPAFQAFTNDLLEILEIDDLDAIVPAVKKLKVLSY
B4: Ligand of Numb protein X 2 (Homo sapiens), Q8N448 (parent)
chain: MGTTSDEMVSVEQTSSSSLNPLCFECGQQHWTRENHLYNYQNEVDDDLVCHICLQPLLQPLDTPCGHTFCYKCLRNFLQEKDFCPLDRKRLHFKLCKKSSILVHKLLDKLLVLCPFSSVCKDVMQRCDLEAHLKNRCPGASHRRVALERRKTSRTQAEIENENGPTLLDPAGTLSPEADCLGTGAVPVERHLTSASLSTWSEEPGLDNPAFEESAGADTTQQPLSLPEGEITTIEIHRSNPYIQLGISIVGGNETPLINIVIQEVYRDGVIARDGRLLAGDQILQVNNYNISNVSHNYARAVLSQPCNTLHLTVLRERRFGNRAHNHSDSNSPREEIFQVALHKRDSGEQLGIKLVRRTDEPGVFILDLLEGGLAAQDGRLSSNDRVLAINGHDLKYGTPELAAQIIQASGERVNLTIARPGKPQPGNTIREAGNHSSSSQHHTPPPYYSRPSSHKDLTQCVTCQEKHITVKKEPHESLGMTVAGGRGSKSGELPIFVTSVPPHGCLARDGRIKRGDVLLNINGIDLTNLSHSEAVAMLKASAASPAVALKALEVQIVEEATQNAEEQPSTFSENEYDASWSPSWVMWLGLPSTLHSCHDIVLRRSYLGSWGFSIVGGYEENHTNQPFFIKTIVLGTPAYYDGRLKCGDMIVAVNGLSTVGMSHSALVPMLKEQRNKVTLTVICWPGSLV
partner: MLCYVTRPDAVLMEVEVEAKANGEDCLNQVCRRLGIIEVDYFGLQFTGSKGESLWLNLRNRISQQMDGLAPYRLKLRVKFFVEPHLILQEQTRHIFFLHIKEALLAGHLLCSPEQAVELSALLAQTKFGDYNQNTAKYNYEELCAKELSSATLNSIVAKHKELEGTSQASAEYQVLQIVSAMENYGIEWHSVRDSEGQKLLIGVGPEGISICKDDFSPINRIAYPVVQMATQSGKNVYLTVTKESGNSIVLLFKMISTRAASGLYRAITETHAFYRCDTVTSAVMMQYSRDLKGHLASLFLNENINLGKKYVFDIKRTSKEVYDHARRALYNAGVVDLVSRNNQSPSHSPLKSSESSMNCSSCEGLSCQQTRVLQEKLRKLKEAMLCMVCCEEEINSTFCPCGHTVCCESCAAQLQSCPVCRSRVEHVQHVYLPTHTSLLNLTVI
B5: Ribosome-recycling factor, mitochondrial (Homo sapiens), Q96E11 (parent)
chain: MALGLKCFRMVHPTFRNYLAASIRPVSEVTLKTVHERQHGHRQYMAYSAVPVRHFATKKAKAKGKGQSQTRVNINAALVEDIINLEEVNEEMKSVIEALKDNFNKTLNIRTSPGSLDKIAVVTADGKLALNQISQISMKSPQLILVNMASFPECTAAAIKAIRESGMNLNPEVEGTLIRVPIPQVTREHREMLVKLAKQNTNKAKDSLRKVRTNSMNKLKKSKDTVSEDTIRLIEKQISQMADDTVAELDRHLAVKTKELLG
partner: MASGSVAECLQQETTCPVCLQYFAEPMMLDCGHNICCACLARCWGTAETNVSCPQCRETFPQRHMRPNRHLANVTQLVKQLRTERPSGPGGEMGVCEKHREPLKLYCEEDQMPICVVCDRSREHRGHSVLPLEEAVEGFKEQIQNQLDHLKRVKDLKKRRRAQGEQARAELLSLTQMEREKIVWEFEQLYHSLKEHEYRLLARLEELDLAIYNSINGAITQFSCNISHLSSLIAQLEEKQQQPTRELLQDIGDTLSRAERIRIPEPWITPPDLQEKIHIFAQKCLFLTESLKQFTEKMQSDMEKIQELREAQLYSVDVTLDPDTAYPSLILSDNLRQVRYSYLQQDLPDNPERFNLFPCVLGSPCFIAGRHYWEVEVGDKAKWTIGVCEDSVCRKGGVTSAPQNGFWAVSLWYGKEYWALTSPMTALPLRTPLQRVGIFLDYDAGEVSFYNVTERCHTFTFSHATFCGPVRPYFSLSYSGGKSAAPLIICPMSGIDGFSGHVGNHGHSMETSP

Variants of: B1
Details: with tfp11_human TFIP11, Q9UBB9

Row | Variant | effect of a mutation on the interaction
1 | W337R | with no effect

Variants of: B2
Details: with pnma1_human PNMA1, Q8ND90

Row | Variant | effect of a mutation on the interaction
2 | R212H | with no effect

Variants of: B3
Details: with cep70_human CEP70, Q8NHQ1

Row | Variant | effect of a mutation on the interaction
3 | R268H | with no effect

Variants of: B4
Details: with mylip_human MYLIP

Row | Variant | effect of a mutation on the interaction
4 | P669A | with no effect

Variants of: B5
Details: with tri27_human TRIM27, P14373

Row | Variant | effect of a mutation on the interaction
5 | G175E | disrupting interaction strength
